Patent CN115785267A (SANYOU BIO INC, dated 2023)

Assays:
人IL-23-His [1] = target: T1, 人IL-23-His (human, UniProt Q9NPF7 20-189; P29460 23-328, limits assumed); assay: cell-based or functional assay
T1 sequence (looked up) 1: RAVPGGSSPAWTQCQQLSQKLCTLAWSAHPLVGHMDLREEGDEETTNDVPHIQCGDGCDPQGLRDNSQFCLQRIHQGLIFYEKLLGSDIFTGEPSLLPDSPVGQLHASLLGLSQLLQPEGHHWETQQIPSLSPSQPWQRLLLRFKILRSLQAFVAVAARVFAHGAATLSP
T1 sequence (looked up) 2: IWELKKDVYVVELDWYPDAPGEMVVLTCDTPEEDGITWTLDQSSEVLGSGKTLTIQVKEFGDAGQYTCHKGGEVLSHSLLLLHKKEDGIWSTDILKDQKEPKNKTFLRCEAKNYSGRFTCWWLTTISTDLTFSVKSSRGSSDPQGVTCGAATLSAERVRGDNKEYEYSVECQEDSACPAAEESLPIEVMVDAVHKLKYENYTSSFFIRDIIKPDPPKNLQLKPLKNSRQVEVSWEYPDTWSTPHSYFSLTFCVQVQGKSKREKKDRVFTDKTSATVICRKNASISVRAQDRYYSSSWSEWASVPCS

人IL-23-His [2] = target: T1, 人IL-23-His; assay: Biacore (SPR), human IL-23-His

Binder	抑制IL-23激活小鼠脾细胞分泌IL-17: 剂量浓度 at which the inhibition is better than that of Guselkumab (人IL-23-His [1]) [µg/mL]	Kd (人IL-23-His [2]) [nM]	koff (人IL-23-His [2]) [s⁻¹]	kon (人IL-23-His [2]) [M⁻¹ s⁻¹]
改造后抗体S5-5HWTL (antibody, V domains shown) VH: QVQLVQSGAEVKKPGSSVKVSCKASGGTFSSYAISWVRQAPGQGLEWMGGIIPIFGTANYAQKFQGRVTITADESTSTAYMELSSLRSEDTAVYYCARDRFGLYYYYGMDVWGQGTMVTVSS VL: QSVLTQPPSVSGAPGQRVTISCTGGSSSIGAGYDVQWYRQLPGIAPKLLIYRSTNRPSGVPARFSGSKSGASASLAITGLQAEDEADYYCVSYDSSLGGYVFGTGTKVTVL	0.063	0.0625	6.97e-06	111000
改造后抗体S5-4H6L (antibody, V domains shown) VH: QVQLVQSGAEVKKPGSSVKVSCKASGGTFSSYAISWVRQAPGQGLEWMGGIIPIFGTANYAQKFQGRVTITADESTSTAYMELSSLRSEDTAVYYCARDRFSLYYYYGMDVWGQGTMVTVSS VL: QSVLTQPPSVSGAPGQRVTISCTGGQSSIGAGYDVQWYRQLPGIAPKLLIYRSTNRPSGVPARFSGSKSGASASLAITGLQAEDEADYYCVSYDASLGGYVFGTGTKVTVL	0.056	0.0589	6.03e-06	102000
改造后抗体S5-15HWTL (antibody, V domains shown) VH: KVQLVQSGAEVKKPGSSVKVSCKASGGTFSSYAISWVRQAPGQGLEWMGGFIPIFGTANYAQKFQGRVTITADESTSTAYMELSSLRSEDTAVYYCARDRTSLYYYYGMDVWGQGTMVTVSS VL: QSVLTQPPSVSGAPGQRVTISCTGGSSSIGAGYDVQWYRQLPGIAPKLLIYRSTNRPSGVPARFSGSKSGASASLAITGLQAEDEADYYCVSYDSSLGGYVFGTGTKVTVL	0.167	0.108	1.18e-05	109000
